According to patent US20100260668A1 (published 2010):

B1: DVD471 (bispecific antibody, IgG1)
VH: EVQLVESGGGLVQPGGSLRLSCAASGFTFTDNWISWVRQAPGKGLEWVGYISPNSGFTYYADSVKGRFTISADTSKNTAYLQMNSLRAEDTAVYYCARDNFGGYFDYWGQGTLVTVSSASTKGPSVFPLAPEVQLVESGGGLVQPGGSLRLSCAASGFTISDYWIHWVRQAPGKGLEWVAGITPAGGYTYYADSVKGRFTISADTSKNTAYLQMNSLRAEDTAVYYCARFVFFLPYAMDYWGQGTLVTVSS
VL: DIQMTQSPSSLSASVGDRVTITCRASQDVSTAVAWYQQKPGKAPKLLIYSASFLYSGVPSRFSGSGSGTDFTLTISSLQPEDFATTYYCQQSYTGTVTFGQGTKVEIKRTVAAPSVFIFPPDIQMTQSPSSLSASVGDRVTITCRASQDVSTAVAWYQQKPGKAPKLLIYSASFLYSGVPSRFSGSGSGTDFTLTISSLQPEDFATYYCQQSYTTPPTFGQGTKVEIKR
notes: HC linker long, LC linker long; also called DVD471H; DVD471L
B2: DVD483 (bispecific antibody, IgG1)
VH: EVQLVESGGGLVQPGGSLRLSCAASGFTFTDNWISWVRQAPGKGLEWVGYISPNSGFTYYADSVKGRFTISADTSKNTAYLQMNSLRAEDTAVYYCARDNFGGYFDYWGQGTLVTVSSASTKGPEVQLVESGGGLVQPGGSLRLSCAASGFTISDYWIHWVRQAPGKGLEWVAGITPAGGYTYYADSVKGRFTISADTSKNTAYLQMNSLRAEDTAVYYCARFVFFLPYAMDYWGQGTLVTVSS
VL: B1 VL
notes: HC linker short, LC linker long; also called DVD483H; DVD483L
B3: DVD477 (bispecific antibody, IgG1)
VH: B1 VH
VL: DIQMTQSPSSLSASVGDRVTITCRASQDVSTAVAWYQQKPGKAPKLLIYSASFLYSGVPSRFSGSGSGTDFTLTISSLQPEDFATTYYCQQSYTGTVTFGQGTKVEIKRTVAAPDIQMTQSPSSLSASVGDRVTITCRASQDVSTAVAWYQQKPGKAPKLLIYSASFLYSGVPSRFSGSGSGTDFTLTISSLQPEDFATYYCQQSYTTPPTFGQGTKVEIKR
notes: HC linker long, LC linker short; also called DVD477H; DVD477L
B4: DVD466 (bispecific antibody, IgG1)
VH: EVQLVESGGGLVQPGGSLRLSCAASGFTISDYWIHWVRQAPGKGLEWVAGITPAGGYTYYADSVKGRFTISADTSKNTAYLQMNSLRAEDTAVYYCARFVFFLPYAMDYWGQGTLVTVSSASTKGPEVQLVESGGGLVQPGGSLRLSCAASGFTFTDNWISWVRQAPGKGLEWVGYISPNSGFTYYADSVKGRFTISADTSKNTAYLQMNSLRAEDTAVYYCARDNFGGYFDYWGQGTLVTVSS
VL: DIQMTQSPSSLSASVGDRVTITCRASQDVSTAVAWYQQKPGKAPKLLIYSASFLYSGVPSRFSGSGSGTDFTLTISSLQPEDFATYYCQQSYTTPPTFGQGTKVEIKRTVAAPDIQMTQSPSSLSASVGDRVTITCRASQDVSTAVAWYQQKPGKAPKLLIYSASFLYSGVPSRFSGSGSGTDFTLTISSLQPEDFATTYYCQQSYTGTVTFGQGTKVEIKR
notes: HC linker short, LC linker short; also called DVD466H; DVD466L
B5: DVD484 (bispecific antibody, IgG1)
VH: B4 VH
VL: DIQMTQSPSSLSASVGDRVTITCRASQDVSTAVAWYQQKPGKAPKLLIYSASFLYSGVPSRFSGSGSGTDFTLTISSLQPEDFATYYCQQSYTTPPTFGQGTKVEIKRTVAAPSVFIFPPDIQMTQSPSSLSASVGDRVTITCRASQDVSTAVAWYQQKPGKAPKLLIYSASFLYSGVPSRFSGSGSGTDFTLTISSLQPEDFATTYYCQQSYTGTVTFGQGTKVEIKR
notes: HC linker short, LC linker long; also called DVD484H; DVD484L
B6: DVD478 (bispecific antibody, IgG1)
VH: EVQLVESGGGLVQPGGSLRLSCAASGFTISDYWIHWVRQAPGKGLEWVAGITPAGGYTYYADSVKGRFTISADTSKNTAYLQMNSLRAEDTAVYYCARFVFFLPYAMDYWGQGTLVTVSSASTKGPSVFPLAPEVQLVESGGGLVQPGGSLRLSCAASGFTFTDNWISWVRQAPGKGLEWVGYISPNSGFTYYADSVKGRFTISADTSKNTAYLQMNSLRAEDTAVYYCARDNFGGYFDYWGQGTLVTVSS
VL: B4 VL
notes: HC linker long, LC linker short; also called DVD478H; DVD478L
B7: DVD452 (bispecific antibody, IgG1)
VH: EVQLVESGGGLVQPGGSLRLSCAASGFTINASWIHWVRQAPGKGLEWVGAIYPYSGYTNYADSVKGRFTISADTSKNTAYLQMNSLRAEDTAVYYCARWGHSTSPWAMDYWGQGTLVTVSSASTKGPSVFPLAPQVQLVQSGAEVKKPGASVKISCKASGYSFTAYYIHWVKQAPGQGLEWIGYISSYNGATNYNQKFKGRVTFTTDTSTSTAYMELRSLRSDDTAVYYCARDYDYDVGMDYWGQGTLVTVSS
VL: DIQMTQSPSSLSASVGDRVTITCRASQVIRRSLAWYQQKPGKAPKLLIYAASNLASGVPSRFSGSGSGTDFTLTISSLQPEDFATYYCQQSNTSPLTFGQGTKVEIKRTVAAPSVFIFPPDIVMTQSPDSLAVSLGERATISCRASESVDNYGISFMKWFQQKPGQPPKLLIYAASNQGSGVPDRFSGSGSGTDFTLTISSLQAEDVAVYYCQQSKEVPWTFGGGTKVEIKR
notes: DVD-Ig, outer AB071 / inner AB069; HC linker long, LC linker long; also called DVD452H; DVD452L
B8: DVD445 (bispecific antibody, IgG1)
VH: QVQLVQSGAEVKKPGASVKISCKASGYSFTAYYIHWVKQAPGQGLEWIGYISSYNGATNYNQKFKGRVTFTTDTSTSTAYMELRSLRSDDTAVYYCARDYDYDVGMDYWGQGTLVTVSSASTKGPEVQLVESGGGLVQPGGSLRLSCAASGFTINASWIHWVRQAPGKGLEWVGAIYPYSGYTNYADSVKGRFTISADTSKNTAYLQMNSLRAEDTAVYYCARWGHSTSPWAMDYWGQGTLVTVSS
VL: DIVMTQSPDSLAVSLGERATISCRASESVDNYGISFMKWFQQKPGQPPKLLIYAASNQGSGVPDRFSGSGSGTDFTLTISSLQAEDVAVYYCQQSKEVPWTFGGGTKVEIKRTVAAPDIQMTQSPSSLSASVGDRVTITCRASQVIRRSLAWYQQKPGKAPKLLIYAASNLASGVPSRFSGSGSGTDFTLTISSLQPEDFATYYCQQSNTSPLTFGQGTKVEIKR
notes: DVD-Ig, outer AB069 / inner AB071; HC linker short, LC linker short; also called DVD445H; DVD445L
B9: DVD457 (bispecific antibody, IgG1)
VH: QVQLVQSGAEVKKPGASVKISCKASGYSFTAYYIHWVKQAPGQGLEWIGYISSYNGATNYNQKFKGRVTFTTDTSTSTAYMELRSLRSDDTAVYYCARDYDYDVGMDYWGQGTLVTVSSASTKGPSVFPLAPEVQLVESGGGLVQPGGSLRLSCAASGFTINASWIHWVRQAPGKGLEWVGAIYPYSGYTNYADSVKGRFTISADTSKNTAYLQMNSLRAEDTAVYYCARWGHSTSPWAMDYWGQGTLVTVSS
VL: B8 VL
notes: DVD-Ig, outer AB069 / inner AB071; HC linker long, LC linker short; also called DVD457H; DVD457L
B10: DVD451 (bispecific antibody, IgG1)
VH: B9 VH
VL: DIVMTQSPDSLAVSLGERATISCRASESVDNYGISFMKWFQQKPGQPPKLLIYAASNQGSGVPDRFSGSGSGTDFTLTISSLQAEDVAVYYCQQSKEVPWTFGGGTKVEIKRTVAAPSVFIFPPDIQMTQSPSSLSASVGDRVTITCRASQVIRRSLAWYQQKPGKAPKLLIYAASNLASGVPSRFSGSGSGTDFTLTISSLQPEDFATYYCQQSNTSPLTFGQGTKVEIKR
notes: DVD-Ig, outer AB069 / inner AB071; HC linker long, LC linker long; also called DVD451H; DVD451L
B11: DVD472 (bispecific antibody, IgG1)
VH: B6 VH
VL: B5 VL
notes: HC linker long, LC linker long; also called DVD472H; DVD472L
B12: DVD446 (bispecific antibody, IgG1)
VH: EVQLVESGGGLVQPGGSLRLSCAASGFTINASWIHWVRQAPGKGLEWVGAIYPYSGYTNYADSVKGRFTISADTSKNTAYLQMNSLRAEDTAVYYCARWGHSTSPWAMDYWGQGTLVTVSSASTKGPQVQLVQSGAEVKKPGASVKISCKASGYSFTAYYIHWVKQAPGQGLEWIGYISSYNGATNYNQKFKGRVTFTTDTSTSTAYMELRSLRSDDTAVYYCARDYDYDVGMDYWGQGTLVTVSS
VL: DIQMTQSPSSLSASVGDRVTITCRASQVIRRSLAWYQQKPGKAPKLLIYAASNLASGVPSRFSGSGSGTDFTLTISSLQPEDFATYYCQQSNTSPLTFGQGTKVEIKRTVAAPDIVMTQSPDSLAVSLGERATISCRASESVDNYGISFMKWFQQKPGQPPKLLIYAASNQGSGVPDRFSGSGSGTDFTLTISSLQAEDVAVYYCQQSKEVPWTFGGGTKVEIKR
notes: DVD-Ig, outer AB071 / inner AB069; HC linker short, LC linker short; also called DVD446H; DVD446L

Target: VEGF (VEGF 1-165 aa, R&D Systems 293-VE-010) (UniProt P15692 27-191)
Test: Direct bind ELISA, VEGF coated on plate;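 further: ELISA screening of antibodies for binding to the plate-coated target antigen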
Description: Enzyme Linked Immunosorbent Assays to screen for antibodies that bind a desired target antigen were performed as follows. […] Plates were washed four times with PBS containing 0.02% Tween 20. Plates were blocked by the addition of 300 μL/well blocking solution (non-fat dry milk powder, various retail suppliers, diluted to 2% in PBS) for ½ hour at room temperature. Plates were washed four times after blocking with PBS containing 0.02% Tween 20.
Plates were washed 4 times with PBS containing 0.02% Tween 20.

VEGF (VEGF 1-165 aa, R&D Systems 293-VE-010), sequence (P15692 other isoform, or with tags, fused parts or gaps limits assumed): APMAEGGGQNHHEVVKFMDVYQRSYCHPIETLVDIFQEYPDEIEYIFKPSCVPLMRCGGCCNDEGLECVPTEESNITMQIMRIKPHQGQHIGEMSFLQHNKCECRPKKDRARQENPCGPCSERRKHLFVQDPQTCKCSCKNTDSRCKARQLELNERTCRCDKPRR

Row | Binder | EC50 [nM]
1 | B1 | 30.1
2 | B2 | 46.1
3 | B3 | 41.7
4 | B4 | 2.61
5 | B5 | 4.84
6 | B6 | 2.72
7 | B7 | 17.8
8 | B8 | 14500
9 | B9 | 1480
10 | B10 | 2400
11 | B11 | 9.22
12 | B12 | 14.4
